Assay results from the supplement of paper PMC11780869.

Tested on: Bacillus subtilis
Assay: cleaved RNA product abundance (RNA/gDNA barcode ratio) relative to median wild-type variant (ratio to wild type); higher = more accumulation of the downstream cleavage product
Conditions: cleavage site: cggR-gapA (positions -7 to +36 mutated)
Summary of the method: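 Oligos with a 9% error rate were used to build barcoded, mutagenized RNase Y cleavage-site windows within truncated aprE or tetM reporter mRNAs, which were integrated into the B. subtilis chromosome. Cultures were grown in LB at 37°C between OD600 0.0003 and 0.3. Cleaved RNA was gel-selected, reverse transcribed and barcode-sequenced, as were genomic DNA barcodes, and UMIs were collapsed. Cleaved product abundance is the scaled RNA:gDNA barcode ratio, with the median construct carrying the unmutated site as reference.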

[1] = experiment (reporter, strain, medium): exp 4a: truncated aprE reporter, strain BJT201 with 2% xylose (RNase J1 expressed)
[2] = experiment (reporter, strain, medium): exp 2b: truncated aprE reporter, strain BJT200
[3] = experiment (reporter, strain, medium): exp 6: tetM reporter, strain 168

Row | Sequence | cleaved RNA product abundance [1] | cleaved RNA product abundance [2] | cleaved RNA product abundance [3]
1 | ACAGACGAAGGAGCCGCAAAGAAGTTATTAAGGGACGAATAATCCCTCCATATAAATATCTCTCACTTATTTAAA | 0.255 | – | –
2 | ACAGACGAAGGAGCCGCAAAGAAGTTATTAAGGGACGAATAATCCGTCAATATAAATATCTCTCACTTATTTAAA | 0.072 | 0.0596 | –
3 | ACAGACGAAGGAGCCGCAAAGAAGTTATTAAGGGACGAATAATCCTTCAATATAAATATCTCTCACTTATTTAAA | 0.217 | 0.146 | –
4 | ACAGACGAAGGAGCCGCAAAGAAGTTATTAAGGGACGAATAATCGCTCAATATAAATATCTCTCACTTATTTAAA | 0.0681 | – | –
5 | ACAGACGAAGGAGCCGCAAAGAAGTTATTAAGGGACGAATAATCTCTCAATATAAATATCTCTCACTTATTTAAA | – | 0.139 | –
6 | ACAGACGAAGGAGCCGCAAAGAAGTTATTAAGGGACGAATAATTCCTCAATATAAATATCTCTCACTTATTTAAA | 0.192 | 0.126 | –
7 | ACAGACGAAGGAGCCGCAAAGAAGTTATTAAGGGACGAATAGTCCCTCAATATAAATATCTCTCACTTATTTAAA | – | 0.905 | –
8 | ACAGACGAAGGAGCCGCAAAGAAGTTATTAAGGGACGAATATTCCCTCAATATAAATATCTCTCACTTATTTAAA | 0.525 | – | –
9 | ACAGACGAAGGAGCCGCAAAGAAGTTATTAAGGGACGATTAATCCCTCAATATAAATATCTCTCACTTATTTAAA | 0.349 | – | –
10 | ACAGACGAAGGAGCCGCAAAGAAGTTATTAAGGGACGTATAATCCCTCAATATAAATATCTCTCACTTATTTAAA | 0.705 | – | –
11 | ACAGACGAAGGAGCCGCAAAGAAGTTATTAAGGGACTAATAATCCCTCAATATAAATATCTCTCACTTATTTAAA | 1.01 | 1.03 | –
12 | ACAGACGAAGGAGCCGCAAAGAAGTTATTAAGGGAGAAATAATCCCTCAATATAAATATCTCTCACTTATTTAAA | 0.795 | – | –
13 | ACAGACGAAGGAGCCGCAAAGAAGTTATTAAGGGAGAATAATCCCTCAATATAAATATCTCTCACTTATTTAAAG | 0.471 | – | –
14 | ACAGACGAAGGAGCCGCAAAGAAGTTATTAAGGGAGCAATAATCCCTCAATATAAATATCTCTCACTTATTTAAA | 0.631 | – | –
15 | ACAGACGAAGGAGCCGCAAAGAAGTTATTAAGGGAGGAATAAACCCTCAATATAAATATCTCTCACTTATTTAAA | 0.382 | – | –
16 | ACAGACGAAGGAGCCGCAAAGAAGTTATTAAGGGAGGAATAACCCCTCAATATAAATATCTCTCACTTATTTAAA | 0.213 | – | –
17 | ACAGACGAAGGAGCCGCAAAGAAGTTATTAAGGGAGGAATAATCCATCAATATAAATATCTCTCACTTATTTAAA | 0.209 | – | –
18 | ACAGACGAAGGAGCCGCAAAGAAGTTATTAAGGGAGGAATAATCCCTAAATATAAATATCTCTCACTTATTTAAA | 0.324 | 0.404 | –
19 | ACAGACGAAGGAGCCGCAAAGAAGTTATTAAGGGAGGAATAATCCCTCAAAATAAATATCTCTCACTTATTTAAA | 0.284 | – | –
20 | ACAGACGAAGGAGCCGCAAAGAAGTTATTAAGGGAGGAATAATCCCTCAAGATAAATATCTCTCACTTATTTAAA | 0.152 | – | –
21 | ACAGACGAAGGAGCCGCAAAGAAGTTATTAAGGGAGGAATAATCCCTCAATATAAATATCTCTCACTTATTTAAA | 0.603 | 0.499 | 0.591
22 | ACAGACGAAGGAGCCGCAAAGAAGTTATTAAGGGAGGAATAATCCCTGAATATAAATATCTCTCACTTATTTAAA | 0.635 | – | –
23 | ACAGACGAAGGAGCCGCAAAGAAGTTATTAAGGGAGGAATAATCCTTCAATATAAATATCTCTCACTTATTTAAA | 0.283 | – | –
24 | ACAGACGAAGGAGCCGCAAAGAAGTTATTAAGGGAGGAATAATCTCTCAATATAAATATCTCTCACTTATTTAAA | 0.198 | – | –
25 | ACAGACGAAGGAGCCGCAAAGAAGTTATTAAGGGAGGAATAATTCCTCAATATAAATATCTCTCACTTATTTAAA | 0.0856 | – | –
26 | ACAGACGAAGGAGCCGCAAAGAAGTTATTAAGGGATAAAAAATCCATCAATATAAATATCTCTCACTTATTTAAA | – | 0.123 | –
27 | ACAGACGAAGGAGCCGCAAAGAAGTTATTAAGGGATAAAAAATCCCTCAATATAAATATCTCTCACTTATTTAAA | 0.625 | – | –

Row | Sequence | cleaved RNA product abundance [1] | cleaved RNA product abundance [2] | cleaved RNA product abundance [3]
28 | ACAGACGAAGGAGCCGCAAAGAAGTTATTAAGGGATAAACAATCCCTCAATATAAATATCTCTCACTTATTTAAA | 0.798 | 0.787 | –
29 | ACAGACGAAGGAGCCGCAAAGAAGTTATTAAGGGATAAAGAATCCCTCAATATAAATATCTCTCACTTATTTAAA | 0.629 | – | –
30 | ACAGACGAAGGAGCCGCAAAGAAGTTATTAAGGGATAAATAAACCCTCAATATAAATATCTCTCACTTATTTAAA | 0.445 | – | –
31 | ACAGACGAAGGAGCCGCAAAGAAGTTATTAAGGGATAAATAACCCCTCAATATAAATATCTCTCACTTATTTAAA | 0.499 | 0.423 | –
32 | ACAGACGAAGGAGCCGCAAAGAAGTTATTAAGGGATAAATAAGCCCTCAATATAAATATCTCTCACTTATTTAAA | 0.821 | – | –
33 | ACAGACGAAGGAGCCGCAAAGAAGTTATTAAGGGATAAATAATACCTCAATATAAATATCTCTCACTTATTTAAA | 0.0789 | 0.117 | –
34 | ACAGACGAAGGAGCCGCAAAGAAGTTATTAAGGGATAAATAATCACTCAATATAAATATCTCTCACTTATTTAAA | 0.104 | 0.0853 | –
35 | ACAGACGAAGGAGCCGCAAAGAAGTTATTAAGGGATAAATAATCCATCAATATAAATATCTCTCACTTATTTAAA | 0.195 | – | –
36 | ACAGACGAAGGAGCCGCAAAGAAGTTATTAAGGGATAAATAATCCCACAATATAAATATCTCTCACTTATTTAAA | 0.356 | 0.253 | –
37 | ACAGACGAAGGAGCCGCAAAGAAGTTATTAAGGGATAAATAATCCCCCAATATAAATATCTCTCACTTATTTAAA | 0.22 | – | –
38 | ACAGACGAAGGAGCCGCAAAGAAGTTATTAAGGGATAAATAATCCCTAAATATAAATATCTCTCACTTATTTAAA | 0.734 | 0.597 | –
39 | ACAGACGAAGGAGCCGCAAAGAAGTTATTAAGGGATAAATAATCCCTCAAAATAAATATCTCTCACTTATTTAAA | 0.241 | 0.293 | –
40 | ACAGACGAAGGAGCCGCAAAGAAGTTATTAAGGGATAAATAATCCCTCAACATAAATATCTCTCACTTATTTAAA | 0.251 | – | –
41 | ACAGACGAAGGAGCCGCAAAGAAGTTATTAAGGGATAAATAATCCCTCAAGATAAATATCTCTCACTTATTTAAA | 0.29 | 0.18 | –
42 | ACAGACGAAGGAGCCGCAAAGAAGTTATTAAGGGATAAATAATCCCTCAATAAAAATATCTCTCACTTATTTAAA | – | – | 0.148
43 | ACAGACGAAGGAGCCGCAAAGAAGTTATTAAGGGATAAATAATCCCTCAATATAAAAATCTCTCACTTATTTAAA | 0.943 | – | –
44 | ACAGACGAAGGAGCCGCAAAGAAGTTATTAAGGGATAAATAATCCCTCAATATAAAGATCTCTCACTTATTTAAA | 0.505 | 0.482 | –
45 | ACAGACGAAGGAGCCGCAAAGAAGTTATTAAGGGATAAATAATCCCTCAATATAAATAACTCTCACTTATTTAAA | 0.823 | – | –
46 | ACAGACGAAGGAGCCGCAAAGAAGTTATTAAGGGATAAATAATCCCTCAATATAAATAGCTCTCACTTATTTAAA | 0.553 | – | –
47 | ACAGACGAAGGAGCCGCAAAGAAGTTATTAAGGGATAAATAATCCCTCAATATAAATATCTCTCACTTATTTAAA | 0.872 | 0.898 | 0.954
48 | ACAGACGAAGGAGCCGCAAAGAAGTTATTAAGGGATAAATAATCCCTCAATATAAATCTCTCTCACTTATTTAAA | 0.65 | 0.559 | –
49 | ACAGACGAAGGAGCCGCAAAGAAGTTATTAAGGGATAAATAATCCCTCAATATAAATGTCTCTCACTTATTTAAA | 0.539 | 0.46 | –
50 | ACAGACGAAGGAGCCGCAAAGAAGTTATTAAGGGATAAATAATCCCTCAATATAAATTTCTCTCACTTATTTAAA | 0.368 | – | –
51 | ACAGACGAAGGAGCCGCAAAGAAGTTATTAAGGGATAAATAATCCCTCAATATAACTATCTCTCACTTATTTAAA | 0.156 | – | –
52 | ACAGACGAAGGAGCCGCAAAGAAGTTATTAAGGGATAAATAATCCCTCAATATAATTATCTCTCACTTATTTAAA | 0.532 | 0.507 | –
53 | ACAGACGAAGGAGCCGCAAAGAAGTTATTAAGGGATAAATAATCCCTCAATATACATATCTCTCACTTATTTAAA | 0.699 | – | –
